{"source": "paper PMC4268493", "molecular_target": "TNF-FLAG (UniProt P01375)", "sequence (P01375 whole entry, the tested form may be a part)": "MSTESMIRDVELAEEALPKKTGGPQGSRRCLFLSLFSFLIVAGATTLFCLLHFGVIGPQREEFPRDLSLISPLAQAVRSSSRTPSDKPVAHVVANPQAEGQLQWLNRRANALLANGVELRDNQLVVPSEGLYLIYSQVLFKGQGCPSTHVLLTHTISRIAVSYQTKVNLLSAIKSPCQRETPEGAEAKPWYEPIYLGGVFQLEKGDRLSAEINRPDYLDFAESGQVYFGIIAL", "test": "SPR", "note": "pKd: −log10 of the molar value.", "data": [{"substance": "Δ6-TNFR1-Fc fusion protein (from UniProt P19438-4 30-183)", "values": [{"measurement": "pKd", "value": 7.81}]}]}
